Assay [1] addresses T1, MMP16 (UniProt P51512 120-607).
T1 construct: whole, on cells; also called HEK293-MMP16
Briefly: flow cytometry, HEK293-MMP16 cells. A general note: A flow cytometer gives signals particle by particle.

The target in assay [2] is T2, TSPAN12-FLAG (UniProt O95859 1-305).
T2 construct: whole, on cells; order of protein and tag unknown; also called HEK293-TSPAN12; not shown: FLAG tag
T2 sequence (looked up): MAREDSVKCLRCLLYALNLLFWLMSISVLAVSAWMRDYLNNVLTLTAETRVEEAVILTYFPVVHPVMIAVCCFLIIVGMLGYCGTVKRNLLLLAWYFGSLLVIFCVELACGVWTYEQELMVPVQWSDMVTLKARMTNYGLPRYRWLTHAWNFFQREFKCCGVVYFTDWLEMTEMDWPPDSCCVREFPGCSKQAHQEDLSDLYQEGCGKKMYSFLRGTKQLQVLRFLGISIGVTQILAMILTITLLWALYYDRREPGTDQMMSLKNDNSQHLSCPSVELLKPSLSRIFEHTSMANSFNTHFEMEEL
Briefly: flow cytometry, HEK293-TSPAN12 cells. An excerpt: (§1) After that, HEK293 cells were transfected with commercial MMP16 (protein information can be found under Uniprot P51512), CD40LG (protein information can be found under Uniprot P29965), CD147 (protein information can be found under Uniprot P35612), TSPAN4 (protein information can be found under Uniprot 014817), and TSPAN12 (protein information can be found under Uniprot 095859) plasmids for further verification of the binding of PR005565, PR006275 and PR006276 to these proteins. […] However, the binding values of PR005565, PR006275 and PR006276 to MMP16, CD40LG, CD147, TSPAN4 and TSPAN12 after transfection of HEK293 cells were all consistent with the signal values of HEK293 cells themselves. Thus, PR005565, PR006275 and PR006276 had no non-specific binding to MMP16, CD40LG, CD147, TSPAN4 and TSPAN12 proteins (see Table 50).

The target of assay [3] is T3, CD40LG (UniProt P29965 1-261).
T3 construct: whole, on cells; also called HEK293-CD40LG
T3 sequence (looked up): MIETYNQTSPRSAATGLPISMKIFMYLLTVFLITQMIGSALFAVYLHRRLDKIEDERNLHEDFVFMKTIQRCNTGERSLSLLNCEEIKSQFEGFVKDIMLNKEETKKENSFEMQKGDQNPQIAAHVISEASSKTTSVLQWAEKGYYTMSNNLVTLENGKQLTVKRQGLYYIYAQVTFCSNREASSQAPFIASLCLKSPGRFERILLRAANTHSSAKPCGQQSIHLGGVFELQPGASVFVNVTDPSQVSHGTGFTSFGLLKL
Briefly: flow cytometry, HEK293-CD40LG cells.

For assay [4], the target named is T2, TSPAN12-FLAG. Description: flow cytometry, transfected HEK293 cells.
Source text: as §1

Assay [5] has as its target T1, MMP16. Description: flow cytometry, transfected HEK293 cells.
Source text: as §1

The target of assay [6] is T4, TSPAN4-FLAG (UniProt O14817 1-238, limits assumed).
T4 construct: whole, on cells; order of protein and tag unknown; also called HEK293-TSPAN4; not shown: FLAG tag
T4 sequence (looked up): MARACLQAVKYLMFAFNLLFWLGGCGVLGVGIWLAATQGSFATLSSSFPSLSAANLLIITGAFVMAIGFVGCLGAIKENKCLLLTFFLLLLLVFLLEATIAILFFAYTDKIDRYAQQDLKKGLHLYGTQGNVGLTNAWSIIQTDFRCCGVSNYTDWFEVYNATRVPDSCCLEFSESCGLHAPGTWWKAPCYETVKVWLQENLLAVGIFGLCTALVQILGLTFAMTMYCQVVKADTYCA
Briefly: flow cytometry, transfected HEK293 cells.
Source text: as §1

The target in assay [7] is T3, CD40LG. Briefly: flow cytometry, transfected HEK293 cells.
Source text: as §1

The next assay deals with T5, cynomolgus monkey CCR8 (cynomolgus monkey, UniProt G7NYJ2 1-355).
T5 construct: whole, on cells; also called CynoCCR8
T5 sequence (G7NYJ2 entry or part of it): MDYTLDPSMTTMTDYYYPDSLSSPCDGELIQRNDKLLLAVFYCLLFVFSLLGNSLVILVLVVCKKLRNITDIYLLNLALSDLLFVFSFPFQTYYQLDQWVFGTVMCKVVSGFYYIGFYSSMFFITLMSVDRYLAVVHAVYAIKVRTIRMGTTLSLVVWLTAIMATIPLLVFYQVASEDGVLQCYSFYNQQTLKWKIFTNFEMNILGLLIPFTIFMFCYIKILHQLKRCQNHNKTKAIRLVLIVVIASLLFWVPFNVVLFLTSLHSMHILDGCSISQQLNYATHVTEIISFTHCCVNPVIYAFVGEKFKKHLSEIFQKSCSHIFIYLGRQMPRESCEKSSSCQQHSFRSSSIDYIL
Briefly: FACS, CHO-K1-CynoCCR8 cells. In outline: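 Anti-CCR8 antibodies titrated in 5-fold steps from 200 nM onto 1E6 cells/mL CHO-K1-CynoCCR8 in DPBS/2% FBS, 1 h at 4 °C. Bound antibody detected with 1:1000 secondary antibody, 40 min at 4 °C, then flow cytometry.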

Assay [8] addresses T4, TSPAN4-FLAG. Briefly: flow cytometry, HEK293-TSPAN4 cells.
The target in a further assay is T6, CD147.
T6 construct: also called HEK293-CD147
Briefly: flow cytometry, HEK293-CD147 cells.

T1 sequence (P51512 120-607): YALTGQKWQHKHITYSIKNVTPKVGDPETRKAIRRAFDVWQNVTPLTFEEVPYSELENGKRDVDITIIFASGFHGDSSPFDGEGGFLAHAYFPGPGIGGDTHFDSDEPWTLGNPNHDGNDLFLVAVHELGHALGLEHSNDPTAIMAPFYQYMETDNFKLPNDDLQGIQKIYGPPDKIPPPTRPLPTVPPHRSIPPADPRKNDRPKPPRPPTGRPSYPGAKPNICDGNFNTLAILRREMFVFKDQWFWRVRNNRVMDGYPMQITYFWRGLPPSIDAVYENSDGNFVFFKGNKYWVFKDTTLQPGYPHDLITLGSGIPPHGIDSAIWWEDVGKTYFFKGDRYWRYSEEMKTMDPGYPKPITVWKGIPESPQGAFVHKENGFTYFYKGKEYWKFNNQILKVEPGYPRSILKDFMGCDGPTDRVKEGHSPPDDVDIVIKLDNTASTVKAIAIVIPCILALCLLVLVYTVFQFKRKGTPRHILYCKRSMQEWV

B1: PR005565 (antibody, human IgG1, kappa)
heavy: not shown
light: DIVMTQSPLSLPVTLGQPASISCRSSKSLLHSNAKIYLYWFQQRPGQSPRLLIYRMSNLASGVPDRFSGSGSGTDFTLKISRVEAEDVGVYYCMQHLEYPLTFGQGTKLEIKRTVAAPSVFIFPPSDEQLKSGTASVVCLLNNFYPREAKVQWKVDNALQSGNSQESVTEQDSKDSTYSLSSTLTLSKADYEKHKVYACEVTHQGLSSPVTKSFNRGEC
notes: IgG1 constant region; same VH/VL as PR004666
B1: the MFI with MMP16 [1] turned out to be 146; with TSPAN12-FLAG [2], 219; with CD40LG [3] it was 241; in the assay with TSPAN4-FLAG [8] it was 207; with CD147, 212. Also, the binding result with TSPAN12-FLAG [4], with MMP16 [5], in the assay with TSPAN4-FLAG [6] and with CD40LG [7] was “no binding” each time. Also, the concentration giving a half-maximal response (EC50) (usually the concentration that produces a half-maximal response) with cynomolgus monkey CCR8 is 0.76 nM.

The values above are taken from patent US20240132603A1 (HARBOUR BIOMED US, published 2024).
